Consider two substances from patent publication US20020045192A1, “Arf and HDM2 interaction domains and methods of use thereof” (St. Jude Children's Research Hospital, priority 2001, published 2002).

This experiment has as its target T1, Hdm2 210-304 (Homo sapiens, UniProt Q00987).
T1 construct: poly-His (thrombin-cleavable, from pET28a) (cleaved yes); made in house; host or cells: E. coli BL21 (DE3)
The experiment in a line: SPR binding of Arf library peptides to immobilized His-tagged Hdm2 210-304. Particulars: 15 amino acid library peptides, binding for 10 minutes. As for the experimental part: Binding studies were performed using a Biacore 3000 surface plasmon resonance (SPR) instrument (Biacore, Inc.). A Tetra-His™ Antibody (Qiagen, Inc.; Cat. #34670) was covalently attached to a carboxymethylated gold surface (C-1 chip; Biacore, Inc.). The carboxymethyl groups on the surface were activated with N-ethyl-N′-(3-dimethylaminopropyl) carbodiimide (EDC) and N-hydroxysuccinimide (NHS) and the antibody was attached at pH 7.4 in 20 mM sodium phosphate buffer, 150 mM NaCl (PBS). Reactive sites remaining on the surface were blocked by reaction with ethanolamine. […] Binding was measured by flowing the non-His-tagged analyte through the reference and ligand-containing flow cells in sequence. […] Changes in the SPR response due to solvent differences and the injection process were monitored by injection of HBS-N buffer alone. […]
Two libraries of peptides 15 amino acids in length were synthesized based on the sequence of exon 1β of mouse p19^Arf and the entire sequence of human p14^Arf. […] The ability of these peptides to bind Hdm2 fragments was determined using the surface plasmon resonance (SPR) technique with a Biacore 3000 instrument. […] Relative binding affinity was judged on the basis of the maximal SPR signal detected after binding for 10 minutes.

Where no end group is shown, it is not given here.

T1 sequence (Q00987 210-304): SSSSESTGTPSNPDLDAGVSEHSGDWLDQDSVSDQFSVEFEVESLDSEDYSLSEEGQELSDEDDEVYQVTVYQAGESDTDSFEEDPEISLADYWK

Consider “human Arf residues 86-100: 15 amino acid human p14^Arf library peptide spanning residues 86-100, contains the NoLS RRPR (LRRPRHSHPTRARRC; not fully specified (N-terminus, C-terminus); UniProt Q8N726 86-100, looked up, fragment)”, for which the “binding to Hdm2 210-304 (maximal SPR signal)” value was “binds”.
In the case of “mouse p19^Arf residues 31-45: 15 amino acid mouse p19^Arf library peptide spanning residues 31-45, contains the RRPR motif (RRPRTASCALAFVNM; UniProt Q64364 31-45, looked up, fragment)”, the “binding to Hdm2 210-304 (maximal SPR signal)” value was “bind”.
